Sequences and labels used below:
B1: Table S3 B row 2580 (dsDNA)
DNA 1: GTCGCTGCGGTTTTGGGGTTGGCATGCTGTCCTCTG
DNA 2: CAGAGGACAGCATGCCAACCCCAAAACCGCAGCGAC
B2: Table S3 B row 3808 (dsDNA)
DNA 1: GCCCTTCTTGCGGTTTTCATGGCAGGGTGTTAACAT
DNA 2: ATGTTAACACCCTGCCATGAAAACCGCAAGAAGGGC
B3: Table S3 B row 3820 (dsDNA)
DNA 1: TTTTGCGGTTTTTGATCTGGAAGCCACACAGCCTTA
DNA 2: TAAGGCTGTGTGGCTTCCAGATCAAAAACCGCAAAA
B4: Table S2 B row 3281 (dsDNA)
DNA 1: GACCTGACAACATCCTGGCGCAGTGAGTTGGCCCTG
DNA 2: CAGGGCCAACTCACTGCGCCAGGATGTTGTCAGGTC
B5: Table S2 B row 159 (dsDNA)
DNA 1: GTAAAAGAGGAAGTAACACCTCCTTGACGTTGAGAC
DNA 2: GTCTCAACGTCAAGGAGGTGTTACTTCCTCTTTTAC
B6: Table S2 B row 544 (dsDNA)
DNA 1: GCTCCCGGATGTTCTGGGGATCAGCGCCCGCCTGGC
DNA 2: GCCAGGCGGGCGCTGATCCCCAGAACATCCGGGAGC
B7: Table S2 B row 4083 (dsDNA)
DNA 1: GCCCCAGCGTTTCCTCTTACCCAAAATGCCCCGCCC
DNA 2: GGGCGGGGCATTTTGGGTAAGAGGAAACGCTGGGGC
B8: Table S2 B row 479 (dsDNA)
DNA 1: CACTTCCCCCAGCCTCTCTTTTTAATACGACAATAG
DNA 2: CTATTGTCGTATTAAAAAGAGAGGCTGGGGGAAGTG
B9: Table S2 B row 799 (dsDNA)
DNA 1: ATGAACCACTTCCTGTGTGTTCCCAGAGAGGTCAGG
DNA 2: CCTGACCTCTCTGGGAACACACAGGAAGTGGTTCAT
B10: Table S2 B row 575 (dsDNA)
DNA 1: GCAGTGCAGGAAGTGCTTTGTCTGGTACAATCCCAA
DNA 2: TTGGGATTGTACCAGACAAAGCACTTCCTGCACTGC
B11: Table S2 B row 1042 (dsDNA)
DNA 1: GGTCCGGATGTATAAAGCGCGGCCCCCTGGGGGGAG
DNA 2: CTCCCCCCAGGGGGCCGCGCTTTATACATCCGGACC
B12: Table S2 B row 3477 (dsDNA)
DNA 1: CTACCGGGAGTGCAGGTCGCGCTTCCGGCGGCGTCC
DNA 2: GGACGCCGCCGGAAGCGCGACCTGCACTCCCGGTAG
B13: Table S2 B row 1396 (dsDNA)
DNA 1: GAGGAGGAAAGCGGAAGCGCTGCCCTCAGTGGTAGG
DNA 2: CCTACCACTGAGGGCAGCGCTTCCGCTTTCCTCCTC
B14: Table S2 B row 1543 (dsDNA)
DNA 1: AAACCAGAGAGGAAGTGGCACCTCATGGCCAGACTG
DNA 2: CAGTCTGGCCATGAGGTGCCACTTCCTCTCTGGTTT
B15: Table S2 B row 813 (dsDNA)
DNA 1: TGATGTAGAATCCGCTCGGCTTCCGGCGAGGGTGGG
DNA 2: CCCACCCTCGCCGGAAGCCGAGCGGATTCTACATCA
B16: Table S2 B row 875 (dsDNA)
DNA 1: AGGCAGCACAGGAAGTTATAACTACATGTACACTTG
DNA 2: CAAGTGTACATGTAGTTATAACTTCCTGTGCTGCCT
B17: Table S2 B row 1606 (dsDNA)
DNA 1: CCGCTTCCTTAGAGGTTAAGTGGTGGAGGTTCAGTT
DNA 2: AACTGAACCTCCACCACTTAACCTCTAAGGAAGCGG
B18: Table S2 B row 306 (dsDNA)
DNA 1: GAGAAACAGGAAGAGGGGTGGTGCTTACGGAACACG
DNA 2: CGTGTTCCGTAAGCACCACCCCTCTTCCTGTTTCTC
B19: Table S2 B row 1126 (dsDNA)
DNA 1: TCCAGCCCCACCGGAAGTGGATGTGATTAATCTAGT
DNA 2: ACTAGATTAATCACATCCACTTCCGGTGGGGCTGGA
B20: Table S2 B row 1731 (dsDNA)
DNA 1: GACTGGTTTCCTGGTTTTGATGTAGTTTAGAGAAAA
DNA 2: TTTTCTCTAAACTACATCAAAACCAGGAAACCAGTC
B21: Table S2 B row 573 (dsDNA)
DNA 1: GCCACCGTATTTCCGCGTTTTTCGAGGTAGGCGGGA
DNA 2: TCCCGCCTACCTCGAAAAACGCGGAAATACGGTGGC
B22: Table S2 B row 540 (dsDNA)
DNA 1: AACAAACCGGATGGGGTTGCCACCTGCAATCTTGTC
DNA 2: GACAAGATTGCAGGTGGCAACCCCATCCGGTTTGTT
B23: Table S2 B row 145 (dsDNA)
DNA 1: CCACCATCTTTCCGGCTCCCTCGCGACCTCCACGAC
DNA 2: GTCGTGGAGGTCGCGAGGGAGCCGGAAAGATGGTGG
B24: Table S2 B row 3084 (dsDNA)
DNA 1: TTTGCACACATCCTGGCCTCCGCCTGAGCACCTCCT
DNA 2: AGGAGGTGCTCAGGCGGAGGCCAGGATGTGTGCAAA
B25: Table S2 B row 3602 (dsDNA)
DNA 1: TGTCGGGCGGATGTGTACCGGCGTTAATATAGTAAG
DNA 2: CTTACTATATTAACGCCGGTACACATCCGCCCGACA
B26: Table S2 B row 3968 (dsDNA)
DNA 1: GCCGCCGTTTCCTGATTGGTCGTGGGTGGCTACCTC
DNA 2: GAGGTAGCCACCCACGACCAATCAGGAAACGGCGGC
B27: Table S2 B row 1979 (dsDNA)
DNA 1: CTGAAACAGGAAGCTGAGGGTGCCGTTGGGGGAGGA
DNA 2: TCCTCCCCCAACGGCACCCTCAGCTTCCTGTTTCAG
B28: Table S2 B row 2920 (dsDNA)
DNA 1: GGCGCTAGGCTTCCGGATCGCGCTGGGCGGAGTTCA
DNA 2: TGAACTCCGCCCAGCGCGATCCGGAAGCCTAGCGCC
B29: Table S2 B row 1163 (dsDNA)
DNA 1: ATCACTTGTTTCCGCCAGCAAATCACAGGTCCCCAG
DNA 2: CTGGGGACCTGTGATTTGCTGGCGGAAACAAGTGAT
B30: Table S2 B row 3902 (dsDNA)
DNA 1: TGGGGCCCGGAAGCGCTGGCGCCTTACGGCCAGAAG
DNA 2: CTTCTGGCCGTAAGGCGCCAGCGCTTCCGGGCCCCA

One series deals with RUNX1 (Homo sapiens, UniProt Q01196). The experiment in a line: gcPBM; 2 nM RUNX1. Particulars: tags: N-terminal GST (pDEST15), kept (PMC6008103); label: surface-attached array probe.
RUNX1, sequence (Q01196 whole entry): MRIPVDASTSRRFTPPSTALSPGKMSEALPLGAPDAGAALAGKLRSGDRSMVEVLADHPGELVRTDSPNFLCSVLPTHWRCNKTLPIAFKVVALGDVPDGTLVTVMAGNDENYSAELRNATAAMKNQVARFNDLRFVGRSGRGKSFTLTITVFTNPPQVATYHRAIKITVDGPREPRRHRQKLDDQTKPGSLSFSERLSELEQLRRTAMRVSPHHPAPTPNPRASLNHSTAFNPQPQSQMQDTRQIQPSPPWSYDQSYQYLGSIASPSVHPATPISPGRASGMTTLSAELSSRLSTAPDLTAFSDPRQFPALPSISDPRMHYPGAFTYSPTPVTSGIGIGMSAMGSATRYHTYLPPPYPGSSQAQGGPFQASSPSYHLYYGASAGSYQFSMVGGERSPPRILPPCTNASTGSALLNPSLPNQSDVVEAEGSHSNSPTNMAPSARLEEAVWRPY
For B1, the binding signal was 58800 PBM fluorescence, median of replicate spots.

For the molecule B2, the binding signal is 60800 PBM fluorescence, median of replicate spots.

For B3, the binding signal was 57800 PBM fluorescence, median of replicate spots.

The next series deals with T1, ETS1 (Homo sapiens, UniProt P14921).
T1 sequence: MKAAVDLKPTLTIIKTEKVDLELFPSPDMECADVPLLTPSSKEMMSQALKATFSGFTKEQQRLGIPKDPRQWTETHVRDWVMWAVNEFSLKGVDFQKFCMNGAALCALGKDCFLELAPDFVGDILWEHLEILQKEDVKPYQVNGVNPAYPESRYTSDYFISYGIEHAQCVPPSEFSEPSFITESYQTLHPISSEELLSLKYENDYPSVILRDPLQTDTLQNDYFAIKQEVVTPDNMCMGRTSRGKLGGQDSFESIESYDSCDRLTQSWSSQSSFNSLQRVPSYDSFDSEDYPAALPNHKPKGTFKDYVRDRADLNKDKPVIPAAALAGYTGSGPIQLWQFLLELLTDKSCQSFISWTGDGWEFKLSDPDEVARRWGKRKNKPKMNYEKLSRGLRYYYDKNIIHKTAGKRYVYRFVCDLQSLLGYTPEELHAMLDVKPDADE
The experiment in a line: gcPBM; 1 nM ETS1. To be noted: tags: N-terminal GST (pDEST15), kept (PMC6008103); label: surface-attached array probe.
As to B4, the binding signal is 3720 PBM fluorescence, median of replicate spots.

As for B5, the binding signal was 2720 PBM fluorescence, median of replicate spots.

For B6, the binding signal is 3300 PBM fluorescence, median of replicate spots.

Regarding B7, the binding signal was 3440 PBM fluorescence, median of replicate spots.

Consider B8, for which the binding signal is 2920 PBM fluorescence, median of replicate spots.

For the molecule B9, the binding signal was 25100 PBM fluorescence, median of replicate spots.

Take B10: the binding signal is 4090 PBM fluorescence, median of replicate spots.

Regarding B11, the binding signal was 2790 PBM fluorescence, median of replicate spots.

Turning to B12, the binding signal was 3610 PBM fluorescence, median of replicate spots.

As to B13, the binding signal was 4360 PBM fluorescence, median of replicate spots.

Take B14: the binding signal was 3160 PBM fluorescence, median of replicate spots.

Take B15: the binding signal was 4160 PBM fluorescence, median of replicate spots.

Take B16: the binding signal is 4250 PBM fluorescence, median of replicate spots.

For B17, the binding signal was 3060 PBM fluorescence, median of replicate spots.

On to B18, for which the binding signal is 2960 PBM fluorescence, median of replicate spots.

B19: the binding signal was 25900 PBM fluorescence, median of replicate spots.

Regarding B20, the binding signal is 3820 PBM fluorescence, median of replicate spots.

As for B21, the binding signal was 3870 PBM fluorescence, median of replicate spots.

Take B22: the binding signal is 3220 PBM fluorescence, median of replicate spots.

Consider B23, for which the binding signal was 3090 PBM fluorescence, median of replicate spots.

In the case of B24, the binding signal is 3370 PBM fluorescence, median of replicate spots.

For B25, the binding signal is 2800 PBM fluorescence, median of replicate spots.

For the molecule B26, the binding signal was 4470 PBM fluorescence, median of replicate spots.

Take B27: the binding signal was 3960 PBM fluorescence, median of replicate spots.

With B28, the binding signal is 2860 PBM fluorescence, median of replicate spots.

In the case of B29, the binding signal is 3770 PBM fluorescence, median of replicate spots.

With B30, the binding signal was 3570 PBM fluorescence, median of replicate spots.
